From patent US20220226493A1 come the findings set out here.

B1: CK6-SET0207 (CK6 with Fc modifications D265C H435A) (antibody, V domains shown)
VH: QVQLVQSGAAVKKPGESLKISCKGSGYRFTSYWIGWVRQMPGKGLEWMGIIYPGDSDTRYSPSFQGQVTISAGKSISTAYLQWSSLKASDTAMYYCARHGRGYNGYEGAFDIWGQGTMVTVSS
VL: AIQLTQSPSSLSASVGDRVTITCRASQGISSALAWYQQKPGKAPKLLIYDASSLESGVPSRFSGSGSGTDFTLTISSLQPEDFATYYCQQFNSYPLTFGGGTKVEIK
B2: CK6-PNU (anti-CD117 antibody CK6 with Fc modification S239C conjugated to PNU) (antibody, DAR 1.4, V domains shown)
VH: B1 VH
VL: B1 VL
B3: CK6-DM (anti-CD117 antibody CK6 with Fc modification S239C conjugated to duocarmycin) (antibody, DAR 1.65, V domains shown)
VH: B1 VH
VL: B1 VL
B4: CK6-PBD (anti-CD117 antibody CK6 with Fc modification S239C conjugated to PBD) (antibody, DAR 1.7, V domains shown)
VH: B1 VH
VL: B1 VL
B5: CK6-D4 (anti-CD117 antibody CK6 with Fc modification S239C conjugated to calicheamicin) (antibody, DAR 1.72, V domains shown)
VH: B1 VH
VL: B1 VL

For the test, the target named is CD117 on Kasumi-1 cells, P10721. The test can be described thus: cell-based or functional assay.
The molecule B1 gave a % Efficacy (in vitro Kasumi cell killing assay, CellTiter-Glo) of 0%. Consider B2, for which the % Efficacy (in vitro Kasumi cell killing assay, CellTiter-Glo) was 85.7%. As to B3, the % Efficacy (in vitro Kasumi cell killing assay, CellTiter-Glo) was determined as 0%. Under B4 stands 60.7%; under B5, 0%.
